Measured values from patent US20220403031A1 (WUXI BIOLOGICS IRELAND, published 2022).

Key:
Factor VIII = experiment: non-specific binding ELISA; antigen coated at 2 ug/mL, antibody at 10 ug/ml
Description: (§1) Non-specific binding ELISA was performed in 96-well high binding plates (Nunc-Immuno Plate, Thermo Scientific). The plate was coated with various antigens (as listed in the left column of Table 11) at 2 μg/mL overnight at 4° C. After blocking with 2% BSA-PBS, 10 μg/ml antibodies were added to the plate and incubated for 2 hours. […] The HRP signal was detected by adding TMB peroxidase substrate and the reaction was stopped after 12 minutes using 2M HCl. The absorbance at 450 nm was read using a microplate reader (Molecular Device). All incubation steps were performed at room temperature. The plate was washed with PBST (0.05% Tween20-PBS) between steps.

FGFR.his = experiment: as above
Description: as §1

CD147.his = experiment: as above
Description: as §1

CTLA4.his = experiment: as above
Description: as §1

W317-hPro1.his = molecular target: T1, W317-hPro1.his; experiment: as above
T1 construct: identity unknown
Description: as §1

CD22.his = experiment: as above
Description: as §1

VEGF.his = experiment: as above
Description: as §1

CD3.his = experiment: as above
Description: as §1

CD40 = experiment: as above
Description: as §1

human serum Albumin = human serum Albumin (human, UniProt P02768 25-609); experiment: as above
Description: as §1

[1] = molecular target: T2, his-tagged human PD-L1 (R&D-9049-B7), hPro1.ECD.His (human, UniProt Q9NZQ7 19-238); experiment: SPR (ProteOn), antibody captured by anti-human IgG Fc, antigen as analyte, 1:1 model
T2 construct: extracellular domain; His tag; also called hPro1.ECD.His (human PD-L1 ECD); human PD-L1 ECD protein (R&D-9049-B7)
Description: (§2) Antibodies binding affinities to his-tagged human PD-L1 (R&D-9049-B7), his-tagged cynomolgus PD-L1 (Sino Biological-90251-C08H) and his-tagged mouse PD-L1 (Sino Biological-50010-M08H) were detected by surface plasmon resonance (SPR) assay using the software ProteOn. Testing antibody was captured on anti-human IgG Fc antibody immobilized GLM chip (Bio-rad). The chip was rotated 90° and washed with running buffer until the baseline is stable. hPro1.ECD.His, cynoPro1.ECD.His and mPro1-ECD-His at different concentrations was injected over the sensor chip at a flow rate of 100 uL/min for an association phase of 120 s, followed by 240-800 s dissociation. The chip was regenerated by 10 mM glycine (pH 1.5) following every dissociation phase.
(§3) The sensorgrams for reference channel L1 and buffer channel A6 were subtracted from the test sensorgrams. The experimental data were fitted by 1:1 binding model. Molecular weight of 40 kDa was used to calculate the molar concentration of analyte hPro1.ECD.His (R&D), cynoPro1.ECD.His and mPro1-ECD-His.

[2] = molecular target: T3, his-tagged cynomolgus PD-L1 (Sino Biological-90251-C08H), cynoPro1.ECD.His (cynomolgus, UniProt G7PSE7 19-238); experiment: as above
T3 construct: extracellular domain; His tag; also called cynoPro1.ECD.His (cyno PD-L1 ECD)
Description: as §2, §3

[3] = molecular target: T4, his-tagged mouse PD-L1 (Sino Biological-50010-M08H), mPro1-ECD-His (mouse, UniProt Q9EP73 19-239); experiment: as above
T4 construct: extracellular domain; His tag; also called mPro1-ECD-His (mouse PD-L1 ECD)
Description: as §2, §3

T4 sequence (Q9EP73 19-239, stated change not applied): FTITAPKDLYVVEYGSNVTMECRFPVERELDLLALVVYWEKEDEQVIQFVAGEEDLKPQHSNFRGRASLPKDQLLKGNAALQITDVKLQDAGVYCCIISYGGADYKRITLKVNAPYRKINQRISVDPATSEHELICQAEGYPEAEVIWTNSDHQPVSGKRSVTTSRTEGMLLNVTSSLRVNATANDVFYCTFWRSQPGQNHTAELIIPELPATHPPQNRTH
T2 sequence (Q9NZQ7 19-238): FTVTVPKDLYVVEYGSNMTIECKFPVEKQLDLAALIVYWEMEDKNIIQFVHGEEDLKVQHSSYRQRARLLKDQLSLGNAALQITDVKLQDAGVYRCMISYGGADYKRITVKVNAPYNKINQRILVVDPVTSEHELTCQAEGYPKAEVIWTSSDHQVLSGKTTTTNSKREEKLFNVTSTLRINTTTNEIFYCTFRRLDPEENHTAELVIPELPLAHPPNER
T3 sequence (G7PSE7 entry or part of it C08H C08H): as the sequence (Q9NZQ7 19-238) above, with A33T, A34S, S62N, R68Q, Q82R, F173L, T185A, T192I, H215L counted along it
Chain of CTLA4.his (P16410 36-161): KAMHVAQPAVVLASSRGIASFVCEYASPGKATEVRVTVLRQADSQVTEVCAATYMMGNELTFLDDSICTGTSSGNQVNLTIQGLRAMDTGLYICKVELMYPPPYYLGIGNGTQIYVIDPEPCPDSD
Chain of CD40 (P25942 21-193): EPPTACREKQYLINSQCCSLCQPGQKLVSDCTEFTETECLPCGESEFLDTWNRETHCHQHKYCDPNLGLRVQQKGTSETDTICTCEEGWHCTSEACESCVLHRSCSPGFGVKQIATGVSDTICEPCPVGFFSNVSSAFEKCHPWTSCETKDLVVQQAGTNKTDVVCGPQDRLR
Chain of VEGF.his (P15692 whole entry): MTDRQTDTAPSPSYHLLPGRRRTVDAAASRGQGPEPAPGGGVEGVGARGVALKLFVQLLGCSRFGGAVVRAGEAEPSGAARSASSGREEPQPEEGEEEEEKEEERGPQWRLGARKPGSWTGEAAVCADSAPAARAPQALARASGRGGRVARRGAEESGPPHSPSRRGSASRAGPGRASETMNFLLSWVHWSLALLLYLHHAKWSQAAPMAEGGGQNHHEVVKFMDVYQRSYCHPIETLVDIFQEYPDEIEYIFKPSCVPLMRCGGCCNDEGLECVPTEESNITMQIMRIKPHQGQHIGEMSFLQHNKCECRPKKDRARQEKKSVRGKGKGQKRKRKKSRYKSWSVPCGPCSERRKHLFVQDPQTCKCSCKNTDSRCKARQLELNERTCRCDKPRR

Absorbance at 450 nm (Factor VIII): 0.06
Absorbance at 450 nm (FGFR.his): 0.14
Absorbance at 450 nm (CD147.his): 0.07
Absorbance at 450 nm (CTLA4.his): 0.08
Absorbance at 450 nm (W317-hPro1.his): 0.06
Absorbance at 450 nm (CD22.his): 0.06
Absorbance at 450 nm (VEGF.his): 0.09
Absorbance at 450 nm (CD3.his): 0.07
Absorbance at 450 nm (CD40): 0.25
Absorbance at 450 nm (human serum Albumin): 0.42
Kd [1]: 0.208 nM
koff [1]: 0.000385 s⁻¹
kon [1]: 1.85e+06 M⁻¹ s⁻¹
Kd [2]: 0.251 nM
koff [2]: 0.000478 s⁻¹
kon [2]: 1.91e+06 M⁻¹ s⁻¹
Kd [3]: 19.4 nM
koff [3]: 0.0114 s⁻¹
kon [3]: 589000 M⁻¹ s⁻¹
B1: AP3R2-1A3-z12-hIgG4 (Fc fusion)
chain: EVQLVESGGGLVQPGGSLRLSCAASGHFSNLAVNWFRQAPGKERELVAGILWSGGSTFYADSVKGRFTISRGNAENMLYLQMNSLRAEDTAVYYCNTGTNWGQGTLVTVSS
notes: VHH-Fc (hIgG4) fusion of the humanized VHH; also called W3156-AP3R2-1A3-z12-hIgG4; W3156 antibody; not shown: Fc of human IgG4
